Entries after “also recorded” stand apart in the source; their conditions may differ. Peptide text beside a SMILES is read from it. * marks the point of attachment. X1 = CCc1c2c(nc3ccc(OC(=O)[C@H]4CC[C@H](CNC(=O)[C@H]5CC[C@H](CN6C(=O)CC(*)C6=O)CC5)CC4)cc13)-c1cc3c(c(=O)n1C2)COC(=O)[C@]3(O)CC
How the values were obtained:
[1] = system: human basophils; conditions: in vitro, preclinical, ref not given; cited from earlier work
[2] = dogs, 4.5–53 mg free base/kg; preclinical, ref not given; cited from earlier work
[3] = Phase I plasma pharmacokinetics of DTS-108, SN-38 and SN-38G; type: in vivo; conditions: human, iv
[4] = Solubility in water; type: physicochemical
[5] = Phase I dose escalation: toxicity; type: in vivo, human; conditions: for Other toxicities: Type of toxicity and grade: UR unrelated, R probably related
[6] = system: dog basophils; conditions: in vitro, preclinical, ref not given; cited from earlier work
[7] = system: cardiac repolarization; test: Cardiovascular effects: QRS and QTc intervals; type: in vivo, human
[8] = system: advanced or metastatic solid tumors; test: Tumor response; type: in vivo, human
[9] = dose 313 mg/m^2, Hyperbilirubinemia (UR)
[10] = drug-related, repeated dosing, all doses, n=42

## CCc1c2c(nc3ccc(OC(=O)[C@H]4CC[C@H](CNC(=O)[C@H]5CC[C@H](CN6C(=O)CC(SC[C@H](N)C(=O)N[C@H](C(=O)N[C@@H](CCCCN)C(=O)N[C@@H](CCCNC(=N)N)C(=O)NCC(=O)N[C@@H](CC(C)C)C(=O)N[C@@H](CCCCN)C(=O)N[C@@H](CC(C)C)C(=O)N[C@@H](CCCNC(=N)N)C(=O)N[C@@H](Cc7c[nH]cn7)C(=O)N[C@H](C(=O)N[C@@H](CCCNC(=N)N)C(=O)N7CCC[C@H]7C(=O)N[C@@H](CCCNC(=N)N)C(=O)N[C@H](C(=O)N[C@H](C(=O)N[C@@H](CCCNC(=N)N)C(=O)N[C@@H](CCSC)C(=O)N[C@@H](CC(=O)O)C(=O)N[C@H](C(=O)O)C(C)C)[C@@H](C)O)C(C)C)C(C)C)C(C)C)C6=O)CC5)CC4)cc13)-c1cc3c(c(=O)n1C2)COC(=O)[C@]3(O)CC (stereo partly drawn) [DTS-108] (H-C(X1)VKRGLKLRHVRPRVTRMDV-OH)
[1]
  histamine release: histamine release induced
[2]
  resolution of immediate effects resembling an infusion reaction: resolved spontaneously within a few hours
  severity of immediate effects resembling an infusion reaction: moderate severity
[3]; 3 mg/m2
  Tmax: 0.25 h
[3]; 6 mg/m2
  Tmax: 1 h
[3]; 12 mg/m2
  Tmax: 0.97 h
[3]; 24 mg/m2
  Tmax: 0.98 h
[3]; 32 mg/m2
  Tmax: 1.11 h
[3]; 42 mg/m2
  Tmax: 1.32 h
[3]; 56 mg/m2
  Tmax: 0.96 h
[3]; 75 mg/m2
  Tmax: 1.44 h
[3]; 100 mg/m2
  Tmax: 1.31 h
[3]; 133 mg/m2
  Tmax: 0.99 h
[3]; 177 mg/m2
  Tmax: 1.45 h
[3]; 235 mg/m2
  Tmax: 1.27 h
[3]; 313 mg/m2
  AUC(0-inf): 439 µg·h/mL
  Tmax: 1.68 h
[3]; 416 mg/m2
  Tmax: 2.47 h
[4]
  solubility in water: highly soluble
[5]; 235 mg/m^2
  patients with Grade 3 neutropenia: one of four
[5]; 313 mg/m^2
  patients with Grade 3 neutropenia: four of six
  patients with no dose-limiting neutropenia: five of the six
[5]; 416 mg/m^2
  patients with Grade 3 neutropenia: four of six
  patients with dose reductions to 313 mg/m^2: three of six
  patients with grade 4 neutropenia: three out of six
[5]; Cohort 11, 177 mg/m^2
  patients with infusion reactions: all three
[5]; all doses
  nephrotoxicity: no evidence of nephrotoxicity
[5]; cycle 1
  dose-limiting toxicity (DLT): Neutropenia
[5]; dose 32 mg/m^2, Hyperbilirubinemia (UR)
  Other toxicities Grades 1–2, patients: 1
[5]; dose 32 mg/m^2, Respiratory and thoracic disorder (UR)
  Other toxicities Grades 1–2, patients: 1
[5]; dose 32 mg/m^2
  Other toxicities: Type of toxicity and grade: Respiratory and thoracic disorder (UR); also recorded: Hyperbilirubinemia (UR)
[5]; dose 42 mg/m^2, Retroperitoneal hematoma (UR)
  Other toxicities Grades 1–2, patients: 1
[5]; dose 42 mg/m^2
  Other toxicities: Type of toxicity and grade: Retroperitoneal hematoma (UR)
[5]; dose 56 mg/m^2, Acute pancreatitis (UR)
  Other toxicities Grades 1–2, patients: 1
[5]; dose 56 mg/m^2, Hyperbilirubinemia (UR)
  Other toxicities Grades 1–2, patients: 1
[5]; dose 56 mg/m^2
  Other toxicities: Type of toxicity and grade: Acute pancreatitis (UR); also recorded: Hyperbilirubinemia (UR)
[5]; dose 75 mg/m^2, 3 patients
  Neutropenia All grades, patients: 1
[5]; dose 100 mg/m^2, 3 patients
  Neutropenia All grades, patients: 1
[5]; dose 100 mg/m^2, Complete left lung atelectasy (UR)
  Other toxicities Grades 1–2, patients: 1
[5]; dose 100 mg/m^2
  Other toxicities: Type of toxicity and grade: Complete left lung atelectasy (UR)
[5]; dose 133 mg/m^2, 4 patients
  Neutropenia All grades, patients: 3
[5]; dose 133 mg/m^2, Hyperbilirubinemia (UR)
  Other toxicities Grades 1–2, patients: 1
[5]; dose 133 mg/m^2
  Other toxicities: Type of toxicity and grade: Hyperbilirubinemia (UR)
[5]; dose 177 mg/m^2, 3 patients
  Neutropenia All grades, patients: 1
[5]; dose 177 mg/m^2
  Other toxicities: Type of toxicity and grade: Vomiting (R), diarrhea (R), and nausea (R)
[5]; dose 177 mg/m^2, Vomiting (R), diarrhea (R), and nausea (R)
  Other toxicities Grades 1–2, patients: 1
[5]; dose 236 mg/m^2, 4 patients
  Neutropenia All grades, patients: 1
  Neutropenia Grades 3–4, patients: 1
[5]; dose 236 mg/m^2, Edema of lower limb (UR)
  Other toxicities Grades 1–2, patients: 1
[5]; dose 236 mg/m^2
  Other toxicities: Type of toxicity and grade: Edema of lower limb (UR); also recorded: Vomiting (R) and diarrhea (R)
[5]; dose 236 mg/m^2, Vomiting (R)
  Other toxicities Grades 1–2, patients: 1
[5]; dose 236 mg/m^2, Vomiting (R) and diarrhea (R)
  Other toxicities Grades 3–4, patients: 1
[5]; dose 313 mg/m^2, 6 patients
  Neutropenia All grades, patients: 6
  Neutropenia Grades 3–4, patients: 4
[5]; dose 313 mg/m^2, Diarrhea (R)
  Other toxicities Grades 3–4, patients: 1
[5]; [9]
  Other toxicities Grades 1–2, patients: 1
  Other toxicities Grades 3–4, patients: 1
[5]; dose 313 mg/m^2
  Other toxicities: Type of toxicity and grade: Diarrhea (R); also recorded: Hyperbilirubinemia (UR)
[5]; dose 416 mg/m^2, 6 patients
  Neutropenia All grades, patients: 6
  Neutropenia Grades 3–4, patients: 4
[5]; dose 416 mg/m^2
  Other toxicities: Type of toxicity and grade: Vomiting (UR), pyrexia (UR), and chills (R)
[5]; dose 416 mg/m^2, Vomiting (UR), pyrexia (UR), and chills (R)
  Other toxicities Grades 1–2, patients: 1
[5]; [10]
  Abdominal pain: Number of patients with ≥1 adverse event: 8
  Abdominal pain: Total (%): 19.0%
  Alanine aminotransferase elevation increased: Number of patients with ≥1 adverse event: 5
  Alanine aminotransferase elevation increased: Total (%): 11.9%
  Alopecia: Number of patients with ≥1 adverse event: 8
  Alopecia: Total (%): 19.0%
  Anemia: Number of patients with ≥1 adverse event: 13
  Anemia: Total (%): 31.0%
  Anorexia: Number of patients with ≥1 adverse event: 9
  Anorexia: Total (%): 21.4%
  Ascites: Number of patients with ≥1 adverse event: 5
  Ascites: Total (%): 11.9%
  Asthenia: Number of patients with ≥1 adverse event: 18
  Asthenia: Total (%): 42.9%
  Constipation: Number of patients with ≥1 adverse event: 6
  Constipation: Total (%): 14.3%
  Cough: Number of patients with ≥1 adverse event: 5
  Cough: Total (%): 11.9%
  Diarrhea: Number of patients with ≥1 adverse event: 17
  Diarrhea: Total (%): 40.5%
  Dyspnea: Number of patients with ≥1 adverse event: 9
  Hypoalbuminemia: Number of patients with ≥1 adverse event: 5
  Hypoalbuminemia: Total (%): 11.9%
  Leukopenia: Number of patients with ≥1 adverse event: 6
  Leukopenia: Total (%): 14.3%
  Lymphopenia: Number of patients with ≥1 adverse event: 7
  Lymphopenia: Total (%): 16.7%
  Nausea: Number of patients with ≥1 adverse event: 18
  Nausea: Total (%): 42.9%
  Neutropenia: Number of patients with ≥1 adverse event: 8
  Neutropenia: Total (%): 19.0%
  Pyrexia: Number of patients with ≥1 adverse event: 7
  Pyrexia: Total (%): 16.7%
  Rash: Number of patients with ≥1 adverse event: 9
  Rash: Total (%): 21.4%
  Vomiting: Number of patients with ≥1 adverse event: 14
  Vomiting: Total (%): 33.3%
  Weight decreased >10%: Number of patients with ≥1 adverse event: 5
  Weight decreased >10%: Total (%): 11.9%
[5]; iv 2-hour infusion every 2 weeks
  recommended Phase II dose (RP2D): 313 mg/m^2
[5]; iv every 2 weeks, patients with advanced/metastatic solid tumors
  maximum tolerated dose (MTD): 313 mg/m^2
[6]
  histamine release: histamine release induced
[7]; all doses
  changes in QRS morphology or interval measurements: no clinically significant drug-related changes
  instances of postdose QTc >450 ms: four
  instances of postdose QTc >500 ms: no instances
[7]; one patient, 416 mg/m^2, cycle 3, predose QTc 391 ms
  QTc at the end of dosing: 484 ms
[8]; 42 patients
  objective response: No patient
[8]; 95% CI 3–17 months
  median progression-free survival: 11 months
[8]; in vivo
  patients with stable disease status maintained for six cycles or longer: seven

From paper PMC5123727 (International Journal of Nanomedicine, 2016)
